Experimental data from patent US20220235109A1 (CUGENE, published 2022).

Columns and labels:
[1] = target: PD-1 on PD-1 positive T cells (Tregs) of human PBMC (human, UniProt Q15116 25-288); test: cell-based or functional assay
[2] = target: human PD1-Fc protein (human, UniProt Q15116 25-167, limits assumed); test: competition ELISA, human PD1-Fc coated, biotinylated Human PDL1-Fc at 0.5 µg/mL as the ligand displaced
Method: (§1) For direct binding, the same ELISA protocol in Example 4 was followed using huPD-1-His as the coating antigen. […] Briefly, plate was coated with 0.2 μg/well of human PD1-Fc protein at 4° C. for overnight. […] Streptavidin-HRP was added as the secondary antibody.

[3] = target: huPD-1-His (human, UniProt Q15116 25-167, limits assumed); test: ELISA, huPD-1-His coated
Sequence of huPD-1-His (Q15116 25-167 limits assumed): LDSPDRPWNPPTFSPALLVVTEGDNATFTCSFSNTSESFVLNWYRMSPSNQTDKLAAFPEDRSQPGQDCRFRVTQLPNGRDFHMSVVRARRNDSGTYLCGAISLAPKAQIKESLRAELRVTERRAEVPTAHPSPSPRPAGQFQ
Method: A panel of IL-2 muteins was expressed as C-terminal fusions to the Fc homodimer of Fc heterodimer and screened for binding to IL-2Rα in enzyme-linked immunosorbent assay (ELISA). Briefly, IL-2Rα-ECD (SEQ ID NO: 5) was coated onto the wells of Nunc Maxisorp 96-well microplates at 0.1 μg/well. After overnight incubation at 4° C. and blocking with superblock (Thermo Fisher), 3-fold serial dilutions of IL-2 Fc fusion proteins starting at 100 nM were added to each well at 100 μI/well. Following one-hour incubation at room temperature, 100 μl/well of goat anti-human IgG Fc-HRP (1:5000 diluted in diluent) were added to each well and incubated at room temperature for 1 hour. Wells were thoroughly aspirated and washed three times with PBS/0.05% Tween-20 following each step. Finally, 100 μl TMB substrate was added to each well; the plate was developed at room temperature in the dark for 10 minutes, and 100 μl/well of stop solution (2N Sulfuric acid, Ricca Chemical) was added. Absorbance was determined at 450 nm and curves were fit using Prism software (Graph Pad).
as §1

[4] = target: T1, IL-2Rβγ on human CD8+ T cells, NK cells and CD4+ T cells (human, UniProt P14784 27-551; P31785 23-369); test: cell-based or functional assay
T1 sequence (looked up) 1: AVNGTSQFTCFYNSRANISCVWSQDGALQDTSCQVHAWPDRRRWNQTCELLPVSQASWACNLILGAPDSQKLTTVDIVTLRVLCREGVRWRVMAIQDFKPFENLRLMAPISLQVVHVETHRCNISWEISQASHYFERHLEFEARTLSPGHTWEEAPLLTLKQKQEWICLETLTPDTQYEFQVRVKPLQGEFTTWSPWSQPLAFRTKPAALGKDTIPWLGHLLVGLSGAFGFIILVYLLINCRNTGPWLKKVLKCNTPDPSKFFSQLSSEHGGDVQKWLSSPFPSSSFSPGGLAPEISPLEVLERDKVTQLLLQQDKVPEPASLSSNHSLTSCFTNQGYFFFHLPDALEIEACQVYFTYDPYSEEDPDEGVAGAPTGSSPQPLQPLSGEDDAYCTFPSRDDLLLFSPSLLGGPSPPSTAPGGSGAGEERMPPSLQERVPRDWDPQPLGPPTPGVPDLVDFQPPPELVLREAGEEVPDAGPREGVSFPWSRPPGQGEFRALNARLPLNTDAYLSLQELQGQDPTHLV
T1 sequence (looked up) 2: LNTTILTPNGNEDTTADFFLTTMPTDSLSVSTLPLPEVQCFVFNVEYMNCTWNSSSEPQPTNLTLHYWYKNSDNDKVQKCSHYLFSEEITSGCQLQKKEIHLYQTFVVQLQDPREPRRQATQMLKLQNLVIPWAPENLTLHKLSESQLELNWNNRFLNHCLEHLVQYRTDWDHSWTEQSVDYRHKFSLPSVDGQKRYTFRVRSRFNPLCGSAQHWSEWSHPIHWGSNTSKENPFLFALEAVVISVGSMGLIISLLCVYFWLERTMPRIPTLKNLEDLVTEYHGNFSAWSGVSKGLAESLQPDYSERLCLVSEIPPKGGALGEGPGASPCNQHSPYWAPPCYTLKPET

[5] = target: T2, IL-2Rα (CD25) on human CD4+ Treg cells (human, UniProt P01589 22-272); test: cell-based or functional assay
T2 sequence (looked up): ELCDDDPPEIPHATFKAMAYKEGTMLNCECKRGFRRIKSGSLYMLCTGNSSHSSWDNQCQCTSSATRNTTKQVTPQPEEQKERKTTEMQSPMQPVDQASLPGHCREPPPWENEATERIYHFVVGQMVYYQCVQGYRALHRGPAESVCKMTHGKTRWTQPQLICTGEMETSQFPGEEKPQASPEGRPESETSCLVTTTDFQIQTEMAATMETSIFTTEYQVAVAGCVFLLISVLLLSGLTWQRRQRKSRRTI

[6] = target: T3, recombinant IL-2Rβγ heterodimer (human); test: ELISA, IL-2Rβγ-Fc heterodimer coated
T3 construct: IL-2Rβ ECD at the N-terminus of Fc hole chain, γc ECD at the N-terminus of Fc knob chain; also called recombinant IL-2Rβγ protein; dimeric IL-2Rβγ receptor
T3 chain 1: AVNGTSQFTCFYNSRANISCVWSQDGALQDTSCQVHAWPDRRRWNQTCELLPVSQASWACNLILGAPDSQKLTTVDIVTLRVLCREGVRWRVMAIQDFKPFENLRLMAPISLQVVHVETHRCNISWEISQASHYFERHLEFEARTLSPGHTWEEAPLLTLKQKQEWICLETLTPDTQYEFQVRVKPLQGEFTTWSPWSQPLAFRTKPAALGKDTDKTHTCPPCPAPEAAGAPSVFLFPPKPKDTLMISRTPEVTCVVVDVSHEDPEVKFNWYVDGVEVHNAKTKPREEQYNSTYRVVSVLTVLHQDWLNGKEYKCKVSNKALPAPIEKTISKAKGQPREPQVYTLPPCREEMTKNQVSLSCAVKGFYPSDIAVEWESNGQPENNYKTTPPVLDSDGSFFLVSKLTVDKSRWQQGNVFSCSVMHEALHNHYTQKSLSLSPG
T3 chain 2: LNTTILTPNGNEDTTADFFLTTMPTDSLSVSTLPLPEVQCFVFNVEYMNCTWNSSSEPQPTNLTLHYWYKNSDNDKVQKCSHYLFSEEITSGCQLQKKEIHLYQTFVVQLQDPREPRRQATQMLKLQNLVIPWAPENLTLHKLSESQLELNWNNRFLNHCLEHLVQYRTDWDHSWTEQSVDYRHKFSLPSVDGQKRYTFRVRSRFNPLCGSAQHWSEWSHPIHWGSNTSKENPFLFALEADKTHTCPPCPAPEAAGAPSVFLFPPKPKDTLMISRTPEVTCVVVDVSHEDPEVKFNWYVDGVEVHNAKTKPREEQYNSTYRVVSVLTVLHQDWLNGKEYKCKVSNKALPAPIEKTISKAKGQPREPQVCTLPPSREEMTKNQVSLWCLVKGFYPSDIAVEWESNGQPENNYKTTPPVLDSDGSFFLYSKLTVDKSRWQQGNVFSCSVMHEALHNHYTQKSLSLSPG
Method: After overnight incubation at 4° C. and blocking with 1% BSA, 3-fold serial dilutions of IL-2 Fc fusion proteins starting at 10 nM were added to each well at 100 μl/well. […] Subsequently, 100 μl/well of streptavidin-HRP (1:5000 diluted in diluent) were added to each well and incubated at room temperature for 40 min. Wells were thoroughly aspirated and washed three times with PBS/0.05% Tween-20 following each step. Finally, 100 μl TMB substrate was added to each well; the plate was developed at room temperature in the dark for 10 minutes, and 100 μl/well of stop solution (2N Sulfuric acid, Ricca Chemical) was added. Absorbance was determined at 450 nm and curves were fit using Prism software (GraphPad).

Sequence of human PD1-Fc protein (Q15116 25-167 limits assumed): as the sequence (Q15116 25-167 limits assumed) above
Sequence of PD-1 on PD-1 positive T cells (Tregs) of human PBMC (Q15116 25-288): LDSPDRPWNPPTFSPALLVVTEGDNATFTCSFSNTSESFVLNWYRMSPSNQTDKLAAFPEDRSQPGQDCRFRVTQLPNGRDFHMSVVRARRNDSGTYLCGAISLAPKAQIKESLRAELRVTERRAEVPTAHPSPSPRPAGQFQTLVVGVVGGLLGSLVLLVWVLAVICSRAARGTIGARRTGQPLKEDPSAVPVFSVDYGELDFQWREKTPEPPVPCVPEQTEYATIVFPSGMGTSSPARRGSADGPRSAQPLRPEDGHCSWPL

Binder	IC50 [2] [nM]	EC50 [3] [nM]	binding result [6]	also measured
P-0803 (antibody, human IgG1, kappa, also called IL-2 P65R/S125I human PD-1 antibody fusion, (G3S)2 linker) heavy 1: not shown heavy 2: EVQLVESGGGLVKPGGSLRLSCAASGFTFSSYDMSWVRQAPGKGLEWVATISGGGSYTYYPDSVKGRFTISRDNAKNSLYLQMNSLRAEDTAVYYCASPDSSGVAYWGQGTLVTVSSASTKGPSVFPLAPSSKSTSGGTAALGCLVKDYFPEPVTVSWNSGALTSGVHTFPAVLQSSGLYSLSSVVTVPSSSLGTQTYICNVNHKPSNTKVDKKVEPKSCDKTHTCPPCPAPEAAGAPSVFLFPPKPKDTLMISRTPEVTCVVVDVSHEDPEVKFNWYVDGVEVHNAKTKPREEQYNSTYRVVSVLTVLHQDWLNGKEYKCKVSNKALPAPIEKTISKAKGQPREPQVYTLPPCREEMTKNQVSLSCAVKGFYPSDIAVEWESNGQPENNYKTTPPVLDSDGSFFLVSKLTVDKSRWQQGNVFSCSVMHEALHNHYTQKSLSLSPG light: DIVMTQSPLSLPVTPGEPASITCKASQDVETVVAWYLQKPGQSPRLLIYWASTRHTGVPDRFSGSGSGTDFTLKISRVEAEDVGVYYCQQYSRYPWTFGQGTKLEIKRTVAAPSVFIFPPSDEQLKSGTASVVCLLNNFYPREAKVQWKVDNALQSGNSQESVTEQDSKDSTYSLSSTLTLSKADYEKHKVYACEVTHQGLSSPVTKSFNRGEC	2.1	0.6	–	pSTAT5 in PD-1 positive T cells (human PBMC), potency against P-0782 [1]: > 15 fold
P-0782 (antibody, mouse IgG1, kappa) heavy 1: EVQLQESGPGLVKPSQSLSLTCSVTGYSITSSYRWNWIRKFPGNRLEWMGYINSAGISNYNPSLKRRISITRDTSKNQFFLQVNSVTTEDAATYYCARSDNMGTTPFTYWGQGTLVTVSSAKTTPPSVYPLAPGSAAQTNSMVTLGCLVKGYFPEPVTVTWNSGSLSSGVHTFPAVLQSDLYTLSSSVTVPSSTWPSQTVTCNVAHPASSTKVDKKIVPRDCGCKPCICTVPEVSSVFIFPPKPKDVLTITLTPKVTCVVVAISKDDPEVQFSWFVDDVEVHTAQTKPREEQINSTFRSVSELPIMHQDWLNGKEFKCRVNSAAFGAPIEKTISKTKGRPKAPQVYTIPPPKKQMAKDKVSLTCMITNFFPEDITVEWQWNGQPAENYKNTQPIMKTDGSYFVYSKLNVQKSNWEAGNTFTCSVLHEGLHNHHTEKSLSHSPG heavy 2: not shown light: DIVMTQGTLPNPVPSGESVSITCRSSKSLLYSDGKTYLNWYLQRPGQSPQLLIYWMSTRASGVSDRFSGSGSGTDFTLKISGVEAEDVGIYYCQQGLEFPTFGGGTKLELKRTDAAPTVSIFPPSSEQLTSGGASVVCFLNNFYPRDINVKWKIDGSERQNGVLNSWTDQDSKDSTYSMSSTLTLTKDEYERHNSYTCEATHKTSTSPIVKSFNRNEC	–	–	–	pSTAT5 EC50 in CD8+ T cells (human PBMC) [4]: 4.6 nM; pSTAT5 EC50 in Treg cells (human PBMC) [5]: 4.5 nM; pSTAT5 EC50 in Treg cells, fold against P-0837 [5]: 10000 fold
P-0795 (antibody, human IgG1, kappa, V domains shown, full heavy and light chains; also called human PD-1 antagonist antibody; hPD1 antibody) VH: EVQLVESGGGLVKPGGSLRLSCAASGFTFSSYDMSWVRQAPGKGLEWVATISGGGSYTYYPDSVKGRFTISRDNAKNSLYLQMNSLRAEDTAVYYCASPDSSGVAYWGQGTLVTVSS VL: DIVMTQSPLSLPVTPGEPASITCKASQDVETVVAWYLQKPGQSPRLLIYWASTRHTGVPDRFSGSGSGTDFTLKISRVEAEDVGVYYCQQYSRYPWTFGQGTKLEIKR	2.1	0.6	–	–
P-0731 (Fc fusion, knob chain carries the IL-2 variant; hole-Fc; monovalent; also called IL-2 L19H/P65R/S125I monovalent Fc fusion) chain 1: DKTHTCPPCPAPEAAGAPSVFLFPPKPKDTLMISRTPEVTCVVVDVSHEDPEVKFNWYVDGVEVHNAKTKPREEQYNSTYRVVSVLTVLHQDWLNGKEYKCKVSNKALPAPIEKTISKAKGQPREPQVCTLPPSREEMTKNQVSLWCLVKGFYPSDIAVEWESNGQPENNYKTTPPVLDSDGSFFLYSKLTVDKSRWQQGNVFSCSVMHEALHNHYTQKSLSLSPGGGGSGGGSAPTSSSTKKTQLQLEHLLHDLQMILNGINNYKNPKLTRMLTFKFYMPKKATELKHLQCLEEELKRLEEVLNLAQSKNFHLRPRDLISNINVIVLELKGSETTFMCEYADETATIVEFLNRWITFIQSIISTLT chain 2: DKTHTCPPCPAPEAAGAPSVFLFPPKPKDTLMISRTPEVTCVVVDVSHEDPEVKFNWYVDGVEVHNAKTKPREEQYNSTYRVVSVLTVLHQDWLNGKEYKCKVSNKALPAPIEKTISKAKGQPREPQVYTLPPCREEMTKNQVSLSCAVKGFYPSDIAVEWESNGQPENNYKTTPPVLDSDGSFFLVSKLTVDKSRWQQGNVFSCSVMHEALHNHYTQKSLSLSPG	–	–	binds	fold decrease in Ki67 expression on human CD8+ T cells (potency against P-0704) [4]: ~30 fold; fold decrease in proliferation (Ki67) of human CD8+ T cells, NK cells and CD4+ T cells (potency against P-0704) [4]: 30 fold
P-0761 (Fc fusion, knob chain carries the IL-2 variant; hole-Fc; monovalent; also called IL-2 L19Y/P65R/S125I monovalent Fc fusion) chain 1: DKTHTCPPCPAPEAAGAPSVFLFPPKPKDTLMISRTPEVTCVVVDVSHEDPEVKFNWYVDGVEVHNAKTKPREEQYNSTYRVVSVLTVLHQDWLNGKEYKCKVSNKALPAPIEKTISKAKGQPREPQVCTLPPSREEMTKNQVSLWCLVKGFYPSDIAVEWESNGQPENNYKTTPPVLDSDGSFFLYSKLTVDKSRWQQGNVFSCSVMHEALHNHYTQKSLSLSPGGGGSGGGSAPTSSSTKKTQLQLEHLLYDLQMILNGINNYKNPKLTRMLTFKFYMPKKATELKHLQCLEEELKRLEEVLNLAQSKNFHLRPRDLISNINVIVLELKGSETTFMCEYADETATIVEFLNRWITFIQSIISTLT chain 2: DKTHTCPPCPAPEAAGAPSVFLFPPKPKDTLMISRTPEVTCVVVDVSHEDPEVKFNWYVDGVEVHNAKTKPREEQYNSTYRVVSVLTVLHQDWLNGKEYKCKVSNKALPAPIEKTISKAKGQPREPQVYTLPPCREEMTKNQVSLSCAVKGFYPSDIAVEWESNGQPENNYKTTPPVLDSDGSFFLVSKLTVDKSRWQQGNVFSCSVMHEALHNHYTQKSLSLSPG	–	–	binds	–
